From FireProtDB (doi:10.1002/pro.100) come the findings set out here.

For this data set the following is noted: Homo sapiens, 25 °C, Urea, Fluorescence, Potassium phosphate 25 mM, NaCl 25 mM, reversible: Yes, whole UniProt chain shown.

B1: Prolactin wild type, P01236 (protein)
chain: MNIKGSPWKGSLLLLLVSNLLLCQSVAPLPICPGGAARCQVTLRDLFDRAVVLSHYIHNLSSEMFSEFDKRYTHGRGFITKAINSCHTSSLATPEDKEQAQQMNQKDFLSLIVSILRSWNEPLYHLVTEVRGMQEAPEAILSKAVEIEEQTKRLLEGMELIVSQVHPETKENEIYPVWSGLPSLQMADEESRLSAYYNLLHCLRRDSHKIDNYLKLLKCRIIHNNNC
In the case of B1, for the setting “pH 5.8”, the denaturant m value is 0.79 kcal/mol/M, the “denaturant midpoint (higher = more stable)” value was 5.48 M and the unfolding free energy was 4.3 kcal/mol. Besides, where the note is “pH 7.8”, the denaturant m value stood at 1.35 kcal/mol/M, the “denaturant midpoint (higher = more stable)” value was 6.08 M and the unfolding free energy stood at 8.2 kcal/mol.
